Consider 2 molecules from patent publication US20210309720A1 (MIT, published 2021).

One assay addresses T1, IL8 (UniProt P10145 28-99, limits assumed).
T1 sequence (looked up): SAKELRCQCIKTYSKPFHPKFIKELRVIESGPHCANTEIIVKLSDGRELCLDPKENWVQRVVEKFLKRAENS
The assay is described as follows: MicroScale Thermophoresis, 5 nM NT647-labeled receptor against a gradient of ligand, 25 C. The method, then: (§1) The affinity of QTY modified cytokine receptor fused with Fc of IgG for their respective native ligands was measured using MicroScale Thermophoresis (MST). Changes in thermophoretic movement for labeled proteins upon ligand-binding were recorded and plotted as a function of ligand concentration.
(§2) MicroScale Thermophoresis (MST) is an optical method detecting changes in thermophoretic movement and TRIC of the protein-attached fluorophore upon ligand binding. Active labelled proteins contribute to the thermophoresis signal upon ligand binding. […] Herein ligand binding experiments were carried out with 5 nM NT647-labeled protein in 1×PBS, 10 mM DTT buffer with different concentration of arginine, against a gradient of respective ligands on a Monolith NT.115 pico instrument at 25° C. Synthesized receptors were labeled with Monolith NT™ 2nd generation protein labeling kit RED-NHS (NanoTemper Technologies) so as to obtain unique fluorescent signals. MST time traces were recorded and analyzed to obtain the highest possible signal-to-noise levels and amplitudes, >5 Fnorm units. The recorded fluorescence was plotted against the concentration of ligand, and curve fitting was performed using the Kd fit formula derived from the law of mass action. For clarity, binding graphs of each independent experiment were normalized to the fraction bound (0=unbound, 1=bound). […]
On the technique in general: MST reads how a fluorescent partner responds to local heating, with and without ligand.

The target of another assay is T2, CCL25 (UniProt O15444 24-150).
T2 sequence (looked up): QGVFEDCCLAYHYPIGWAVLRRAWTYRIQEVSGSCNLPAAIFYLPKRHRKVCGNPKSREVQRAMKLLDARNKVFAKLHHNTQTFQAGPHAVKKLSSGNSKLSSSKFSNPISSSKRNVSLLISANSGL
The assay is described as above. The method, then: as §1, §2

B1: CXCR2-QTY Fc (Fc fusion)
chain: MEDFNMESDSFEDFWKGEDLSNYSYSSTLPPFLLDAAPCEPESLEINKYYTTTTYAQTYQQSQQGNSQTMQTTQYSRVGRSVTDTYQQNQAQADQQYAQTQPTWAASKVNGWIFGTFLCKTTSQQKETNYYSGTQQQACTSTDRYLAIVHATRTLTQKRYLVKYTCQSTWGQSQQQAQPTQQYRRTVYSSNVSPACYEDMGNNTANWRMQQRTQPQSYGYTQPQQTMQYCYGFTLRTLFKAHMGQKHRAMRTTYATTQTYQQCWQPYNQTQQADTLMRTQVIQETCERRNHIDRAQDATETQGTQHSCQNPQTYAYTGQKFRHGLLKILAIHGLISKDSLPKDSRPSFVGSSSGHTSTTLTETSQVAPAHHHHHHHHHHGSKLVDPRGPTIKPCPPCKCPAPNLLGGPSVFIFPPKIKDVLMISLSPIVTCVVVDVSEDDPDVQISWFVNNVEVHTAQTQTHREDYNSTLRVVSALPIQHQDWMSGKEFKCKVNNKDLPAPIERTISKPKGSVRAPQVYVLPPPEEEMTKKQVTLTCMVTDFMPEDIYVEWTNNGKTELNYKNTEPVLDSDGSYFMYSKLRVEKKNWVERNSYSCSVVHEGLHNHHTTKSFSRTPGK
modifications: labeled with NT647 fluorescent dye (Monolith NT 2nd generation protein labeling kit RED-NHS)
notes: also called Fc fusion QTY CXCR2 variant receptor protein
The Kd is the free concentration of one partner at which half of the binding sites on the other are occupied at equilibrium, for simple one-to-one binding. Higher therefore signals lower affinity. B1 had a Kd with IL8 of 60.3 nM.

B2: CCR9-QTY Fc (Fc fusion)
chain: MTPTDFTSPIPNMADDYGSESTSSMEDYVNFNFTDFYCEKNNVRQFASHYQPPQYWQTYTTGAQGNSQTTQTYWYCTRVKTMTDMYQQNQATADQQYQTTQPYWATAAADQWKFQTFMCKTTNSMYKMNYYSCTQQTMCTSTDRYTATAQAMRAHTWREKRQQYSKMTCYTTWTQAAAQCTPETQYSQIKEESGIAICTMVYPSDESTKQKSATQTQKTTQGYYQPYTTMACCYTTTTHTQTQAKKSSKHKAQKTTTTTQTTYTQSQYPYNCTQQTQTTDAYAMFISNCATSTNTDTCYQTTQTTAYYHSCQNPTQYTYTGERFRRDLVKTLKNLGCISQAQWVSFTRREGSLKLSSMLLETTSGALSLTETSQVAPAHHHHHHHHHHTETSQVAPAHHHHHHHHHHGSKLVDPRGPTIKPCPPCKCPAPNLLGGPSVFIFPPKIKDVLMISLSPIVTCVVVDVSEDDPDVQISWFVNNVEVHTAQTQTHREDYNSTLRVVSALPIQHQDWMSGKEFKCKVNNKDLPAPIERTISKPKGSVRAPQVYVLPPPEEEMTKKQVTLTCMVTDFMPEDIYVEWTNNGKTELNYKNTEPVLDSDGSYFMYSKLRVEKKNWVERNSYSCSVVHEGLHNHHTTKSFSRTPGK
modifications: labeled with NT647 fluorescent dye (Monolith NT 2nd generation protein labeling kit RED-NHS)
notes: also called Fc fusion QTY CCR9 variant receptor protein
As to B2, the Kd with CCL25 stood at 37.2 nM.
